The series concerns the target GST-PpNAC1 (Prunus persica (peach), UniProt M5WG30 1-363). Nature of the series: EMSA; LightShift Chemiluminescent EMSA kit (Thermo Fisher); buffer, salt, pH and temperature not stated (refers to previous study). Particulars: protein: recombinant; tags: GST (N-terminal, pGEX-4T-1); chain copies: 2; blunt.

Chain of GST-PpNAC1 (M5WG30 entry or part of it): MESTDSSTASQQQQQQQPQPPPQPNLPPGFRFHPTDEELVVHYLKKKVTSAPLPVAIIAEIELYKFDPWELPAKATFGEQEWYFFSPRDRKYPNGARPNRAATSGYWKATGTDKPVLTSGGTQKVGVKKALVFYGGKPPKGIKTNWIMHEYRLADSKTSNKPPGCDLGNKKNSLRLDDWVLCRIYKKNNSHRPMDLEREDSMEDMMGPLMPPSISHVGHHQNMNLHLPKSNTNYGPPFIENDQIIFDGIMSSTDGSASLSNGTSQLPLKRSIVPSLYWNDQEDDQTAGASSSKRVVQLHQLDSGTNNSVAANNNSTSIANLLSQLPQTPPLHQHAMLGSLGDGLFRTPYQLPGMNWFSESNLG

B1: Mutant-Probe1 (dsDNA)
DNA 1: AACCCCGCAGCAGCGTGCACTTTACCTGGTG
DNA 2: CACCAGGTAAAGTGCACGCTGCTGCGGGGTT
Take B1: the binding result was “no binding”.

The values above are taken from publication PMC9172071, “Peach fruit PpNAC1 activates PpFAD3-1 transcription to provide ω-3 fatty acids for the synthesis of short-chain flavor volatiles”.
